Assay results published in patent US20180169261A1 (Seagen, published 2018).
Blank lines part the entries; values can stand above or below the binder they belong to.

Columns and labels:
[1] = target: T1, human CD123 (human, UniProt P26951 19-378); assay: cell-based or functional assay
[2] = target: T1, human CD123; assay: cell-based or functional assay; remark: listed apart in the source
[3] = target: T1, human CD123; assay: cell-based or functional assay; remark: listed apart in the source
[4] = target: T2, cynomolgus CD123 (cynomolgus); assay: saturation binding of AlexaFluor-488 labeled mAb, flow cytometry on HEK293F cells expressing cyno CD123; apparent Kd
T2 construct: whole, on cells; Expressed on transfected HEK-293F cells; also called cyno CD123
Method: (§1) One hundred thousand CD123-positive cells (HEK-293F cells transfected to express human or cynomologus CD123) were transferred to 96-well plates. […] Cells were pelleted by centrifugation, washed 3 times with a PBS+1% BSA solution, and resuspended in 125 μL of PBS+1% BSA. Fluorescence was analyzed using a flow cytometer, and the percent of saturated fluorescent signal was used to determine percent bound and to subsequently calculate apparent Kd.

[5] = target: T1, human CD123; assay: saturation binding of AlexaFluor-488 labeled mAb, flow cytometry on HEK293F cells expressing human CD123; apparent Kd
Method: as §1

[6] = target: T1, human CD123; assay: competition with 5 nM AlexaFluor-488 m7G3, flow cytometry on Molm-13 AML cells
Method: Cells were centrifuged, washed 3 times with PBS, and resuspended in 125 μL of a PBS+1% BSA solution. Fluorescence was analyzed using a flow cytometer, and the percent of saturated fluorescent signal was used to determine percent labeled 7G3 mAb bound. The EC50 was extrapolated by fitting the data to a sigmoidal dose-response curve with variable slope.

T1 sequence (P26951 19-378): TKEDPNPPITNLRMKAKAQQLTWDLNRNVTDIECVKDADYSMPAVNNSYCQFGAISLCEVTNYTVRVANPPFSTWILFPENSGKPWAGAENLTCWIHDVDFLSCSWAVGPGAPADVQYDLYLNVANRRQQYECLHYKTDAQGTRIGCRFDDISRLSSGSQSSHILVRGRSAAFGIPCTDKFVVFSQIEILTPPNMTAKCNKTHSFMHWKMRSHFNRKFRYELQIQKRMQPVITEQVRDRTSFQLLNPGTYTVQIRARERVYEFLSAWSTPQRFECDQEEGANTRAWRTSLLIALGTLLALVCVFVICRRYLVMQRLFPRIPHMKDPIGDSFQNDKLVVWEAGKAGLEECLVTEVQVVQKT

B1: h7G3EC-SGD-1910 (antibody, human IgG1, kappa, V domains shown)
VH: QVQLVQSGAEVKKPGASVKMSCKASGYTFTDYYMKWVKQAPGQGLEWIGDIIPSNGATFYNQKFKGKATLTVDRSISTAYMHLNRLRSDDTAVYYCTRSHLLRASWFAYWGQGTLVTVSS
VL: DFVMTQSPDSLAVSLGERATINCKSSQSLLNSGNQKNYLTWYLQKPGQPPKLLIYWASTRESGVPDRFSGSGSGTDFTLTISSLQAEDVAVYYCQNDYSYPYTFGQGTKLEIKR
modifications: SGD-1910 PBD drug-linker on the thiol of Cys 239 (EU index); average drug load about 2 per antibody
mean IC50, in vitro cytotoxicity, responsive CD123-positive AML cell lines [1]: 7 ng/mL | mean IC50, in vitro cytotoxicity, responsive primary AML samples [1]: 1 ng/mL | IC50, in vitro cytotoxicity (CelltiterGlo, 96 h), GDM-1 AML cells [2]: 3.5 ng/mL | IC50, in vitro cytotoxicity (CelltiterGlo, 96 h), HNT-34 AML cells [2]: 0.35 ng/mL | IC50, in vitro cytotoxicity (CelltiterGlo, 96 h), KG1-INV AML cells [2]: 0.6 ng/mL | IC50, in vitro cytotoxicity (CelltiterGlo, 96 h), KG-1 AML cells [2]: 0.8 ng/mL | IC50, in vitro cytotoxicity (CelltiterGlo, 96 h), Kasumi-1 AML cells [2]: 1 ng/mL | IC50, in vitro cytotoxicity (CelltiterGlo, 96 h), MV4-11 AML cells [2]: 0.02 ng/mL | IC50, in vitro cytotoxicity (CelltiterGlo, 96 h), Molm-13 AML cells [2]: 0.08 ng/mL | IC50, in vitro cytotoxicity (CelltiterGlo, 96 h), NOMO-1 AML cells [2]: 38 ng/mL | IC50, in vitro cytotoxicity (CelltiterGlo, 96 h), SKM-1 AML cells [2]: 2.5 ng/mL | IC50, in vitro cytotoxicity (CelltiterGlo, 96 h), TF1a AML cells [2]: > 1000 ng/mL | IC50, in vitro cytotoxicity (CelltiterGlo, 96 h), THP-1 AML cells [2]: 24 ng/mL | IC50, in vitro cytotoxicity (Annexin V/PI flow cytometry), primary AML sample FH016 [3]: 1.4 ng/mL | IC50, in vitro cytotoxicity (Annexin V/PI flow cytometry), primary AML sample FH018 [3]: 0.12 ng/mL | IC50, in vitro cytotoxicity (Annexin V/PI flow cytometry), primary AML sample FH019 [3]: > 2.5 ng/mL | IC50, in vitro cytotoxicity (Annexin V/PI flow cytometry), primary AML sample FH020 [3]: 2.5 ng/mL | IC50, in vitro cytotoxicity (Annexin V/PI flow cytometry), primary AML sample FH021 [3]: 1.6 ng/mL | IC50, in vitro cytotoxicity (Annexin V/PI flow cytometry), primary AML sample FH022 [3]: 0.56 ng/mL | IC50, in vitro cytotoxicity (Annexin V/PI flow cytometry), primary AML sample FH023 [3]: 0.06 ng/mL | IC50, in vitro cytotoxicity (Annexin V/PI flow cytometry), primary AML sample FH024 [3]: 2 ng/mL | IC50, in vitro cytotoxicity (Annexin V/PI flow cytometry), primary AML sample FH025 [3]: 6.5 ng/mL | IC50, in vitro cytotoxicity (Annexin V/PI flow cytometry), primary AML sample FH026 [3]: 0.22 ng/mL | IC50, in vitro cytotoxicity (Annexin V/PI flow cytometry), primary AML sample FH027 [3]: > 2.5 ng/mL | IC50, in vitro cytotoxicity (Annexin V/PI flow cytometry), primary AML sample FH028 [3]: 2 ng/mL | IC50, in vitro cytotoxicity (Annexin V/PI flow cytometry), primary AML sample FH029 [3]: 0.46 ng/mL | IC50, in vitro cytotoxicity (Annexin V/PI flow cytometry), primary AML sample FH034 [3]: 0.22 ng/mL | IC50, in vitro cytotoxicity (Annexin V/PI flow cytometry), primary AML sample FH036 [3]: 0.16 ng/mL | IC50, in vitro cytotoxicity (Annexin V/PI flow cytometry), primary AML sample FH037 [3]: 0.68 ng/mL | IC50, in vitro cytotoxicity (Annexin V/PI flow cytometry), primary AML sample FH038 [3]: 0.18 ng/mL

B4: HCLA (antibody, V domains shown)
VH: B1 VH
VL: B1 VL
notes: also called lead humanized 7G3 antibody; vHC/vLA
EC50 [6]: 2.6 nM

B6: Chimeric 7G3 (antibody, V domains shown)
VH: EVQLQQSGPELVKPGASVKMSCKASGYTFTDYYMKWVKQSHGKSLEWIGDIIPSNGATFYNQKFKGKATLTVDRSSSTAYMHLNSLTSEDSAVYYCTRSHLLRASWFAYWGQGTLVTVSA
VL: DFVMTQSPSSLTVTAGEKVTMSCKSSQSLLNSGNQKNYLTWYLQKPGQPPKLLIYWASTRESGVPDRFTGSGSGTDFTLTISSVQAEDLAVYYCQNDYSYPYTFGGGTKLEIKR
Kd [4]: 4.7 nM | Kd [5]: 2.7 nM | EC50 [6]: 2 nM

Now from value to binder:

Kd [4]: 5.3 nM | Kd [5]: 2.7 nM
B2: h7G3, G1 (antibody, V domains shown)
VH: B1 VH
VL: B1 VL
notes: also called humanized 7G3, IgG1

Kd [4]: 6.6 nM | Kd [5]: 2.7 nM
B3: h7G3EC (antibody, human IgG1, kappa, V domains shown)
VH: B1 VH
VL: B1 VL
notes: EC means cysteine at position 239 (EU index) of the IgG1 heavy chain; Unconjugated antibody; also called humanized 7G3 with S239C

Kd [4]: 4.6 nM | Kd [5]: 2.7 nM | EC50 [6]: 4.3 nM
B5: murine 7G3 antibody (antibody, V domains shown)
VH: B6 VH
VL: B6 VL
notes: Murine monoclonal antibody; also called m7G3
